Laboratory results taken from patent US20230002480A1.

What was measured:
Test in all cases: cell-based or functional assay
[1] = molecular target: HIV-1 Env of pseudovirus RHPA4259.7 (HIV-1)
[2] = molecular target: HIV-1 Env pseudovirus 6545.v4.c1 (HIV-1)
[3] = molecular target: HIV-1 Env of pseudovirus ZM53M.PB12 (HIV-1)
[4] = molecular target: HIV-1 Env pseudovirus 0260.v5.c36 (HIV-1)
[5] = molecular target: HIV-1 Env pseudovirus C1080.c03 (HIV-1)
[6] = molecular target: HIV-1 Env of pseudovirus Ce1086_B2 (HIV-1)
[7] = molecular target: HIV-1 Env of pseudovirus Q23.17 (HIV-1)
[8] = molecular target: HIV-1 Env of pseudovirus CAP45.2.00.G3 (HIV-1)
[9] = molecular target: HIV-1 Env of pseudovirus 6952.v1.c20 (HIV-1)
[10] = molecular target: HIV-1 Env of pseudovirus Ce2010_F5 (clade C (T/F)) (HIV-1)
[11] = molecular target: HIV-1 Env of pseudovirus CAP210.2.00.E8 (clade C) (HIV-1)
[12] = molecular target: HIV-1 Env of pseudovirus RHPA4259.7 (clade B) (HIV-1)
[13] = molecular target: HIV-1 Env of pseudovirus HIV-16055-2.3 (clade C) (HIV-1)
[14] = molecular target: HIV-1 Env of pseudovirus 3415.v1.c1 (HIV-1)
[15] = molecular target: MuLV envelope (negative control pseudovirus) (MuLV)

With N49P9.1 (antibody) the IC50 [1] was 0.021 µg/mL, the IC80 [1] was 0.066 µg/mL and the MPI [1] was 100. The IC50 [2] was over 50 µg/mL, the IC80 [2] was over 50 µg/mL and the MPI [2] was 6. For the same substance, the IC50 [3] was 0.447 µg/mL, the IC80 [3] was 1.29 µg/mL and the MPI [3] was 100. It also gave an IC50 [4] of 0.519 µg/mL, an IC80 [4] of 0.151 µg/mL and an MPI [4] of 100. The IC50 [5] was 0.156 µg/mL, the IC80 [5] was 0.939 µg/mL and the MPI [5] was 100. It also gave an IC50 [6] of 0.814 µg/mL, an IC80 [6] of 4.08 µg/mL and an MPI [6] of 96. It also gave an IC50 [7] of 0.029 µg/mL, an IC80 [7] of 0.106 µg/mL and an MPI [7] of 100. It also gave an IC50 [8] of 1.72 µg/mL, an IC80 [8] of 19.6 µg/mL and an MPI [8] of 88.
N49P19 (antibody) showed an IC50 [1] of over 50 µg/mL, an IC80 [1] of over 50 µg/mL and an MPI [1] of 42. The IC50 [2] was over 50 µg/mL, the IC80 [2] was over 50 µg/mL and the MPI [2] was 2. The IC50 [3] was 1.19 µg/mL, the IC80 [3] was 4.14 µg/mL and the MPI [3] was 100. It also gave an IC50 [4] of 1.25 µg/mL, an IC80 [4] of 8.52 µg/mL and an MPI [4] of 99. It also gave an IC50 [5] of 0.682 µg/mL, an IC80 [5] of 3.05 µg/mL and an MPI [5] of 100. It also gave an IC50 [6] of 0.613 µg/mL, an IC80 [6] of 2.68 µg/mL and an MPI [6] of 97. It also gave an IC50 [7] of 0.234 µg/mL, an IC80 [7] of 1.37 µg/mL and an MPI [7] of 100. It also gave an IC50 [8] of over 50 µg/mL, an IC80 [8] of over 50 µg/mL and an MPI [8] of 5.
For N49P9 (antibody), the IC50 [1] was 0.023 µg/mL, the IC80 [1] was 0.078 µg/mL and the MPI [1] was 100. The IC50 [2] was over 50 µg/mL, the IC80 [2] was over 50 µg/mL and the MPI [2] was 20. For the same substance, the IC50 [3] was 0.362 µg/mL, the IC80 [3] was 1.14 µg/mL and the MPI [3] was 100. For the same substance, the IC50 [4] was 0.466 µg/mL, the IC80 [4] was 1.85 µg/mL and the MPI [4] was 100. The IC50 [5] was 0.119 µg/mL, the IC80 [5] was 0.575 µg/mL and the MPI [5] was 100. For the same substance, the IC50 [6] was 0.341 µg/mL, the IC80 [6] was 1.69 µg/mL and the MPI [6] was 97. For the same substance, the IC50 [7] was 0.032 µg/mL, the IC80 [7] was 0.091 µg/mL and the MPI [7] was 100. It also gave an IC50 [8] of 0.294 µg/mL, an IC80 [8] of 1.99 µg/mL and an MPI [8] of 98.
N49P18.1 (antibody) was tested, and the IC50 [9] was over 50 µg/mL, the IC80 [9] was over 50 µg/mL and the MPI [9] was 30. The IC50 [10] was 29 µg/mL, the IC80 [10] was over 50 µg/mL and the MPI [10] was 68. For the same substance, the IC50 [11] was over 50 µg/mL, the IC80 [11] was over 50 µg/mL and the MPI [11] was 11. The IC50 [12] was 4.34 µg/mL, the IC80 [12] was 21.4 µg/mL and the MPI [12] was 98. The IC50 [13] was 8.04 µg/mL, the IC80 [13] was 22.6 µg/mL and the MPI [13] was 97. For the same substance, the IC50 [14] was over 50 µg/mL, the IC80 [14] was over 50 µg/mL and the MPI [14] was 48. For the same substance, the IC50 [15] was over 50 µg/mL, the IC80 [15] was over 50 µg/mL and the MPI [15] was 0.
